These are literature values, as cited in paper PMC12869367.

Usually Kd stands for the concentration at which binding is half-saturated.

The target in the data set is DMBT1S8L (Homo sapiens) (UniProt Q9UGM3).
Sequence of UniProt Q9UGM3 (Q9UGM3 20-2413): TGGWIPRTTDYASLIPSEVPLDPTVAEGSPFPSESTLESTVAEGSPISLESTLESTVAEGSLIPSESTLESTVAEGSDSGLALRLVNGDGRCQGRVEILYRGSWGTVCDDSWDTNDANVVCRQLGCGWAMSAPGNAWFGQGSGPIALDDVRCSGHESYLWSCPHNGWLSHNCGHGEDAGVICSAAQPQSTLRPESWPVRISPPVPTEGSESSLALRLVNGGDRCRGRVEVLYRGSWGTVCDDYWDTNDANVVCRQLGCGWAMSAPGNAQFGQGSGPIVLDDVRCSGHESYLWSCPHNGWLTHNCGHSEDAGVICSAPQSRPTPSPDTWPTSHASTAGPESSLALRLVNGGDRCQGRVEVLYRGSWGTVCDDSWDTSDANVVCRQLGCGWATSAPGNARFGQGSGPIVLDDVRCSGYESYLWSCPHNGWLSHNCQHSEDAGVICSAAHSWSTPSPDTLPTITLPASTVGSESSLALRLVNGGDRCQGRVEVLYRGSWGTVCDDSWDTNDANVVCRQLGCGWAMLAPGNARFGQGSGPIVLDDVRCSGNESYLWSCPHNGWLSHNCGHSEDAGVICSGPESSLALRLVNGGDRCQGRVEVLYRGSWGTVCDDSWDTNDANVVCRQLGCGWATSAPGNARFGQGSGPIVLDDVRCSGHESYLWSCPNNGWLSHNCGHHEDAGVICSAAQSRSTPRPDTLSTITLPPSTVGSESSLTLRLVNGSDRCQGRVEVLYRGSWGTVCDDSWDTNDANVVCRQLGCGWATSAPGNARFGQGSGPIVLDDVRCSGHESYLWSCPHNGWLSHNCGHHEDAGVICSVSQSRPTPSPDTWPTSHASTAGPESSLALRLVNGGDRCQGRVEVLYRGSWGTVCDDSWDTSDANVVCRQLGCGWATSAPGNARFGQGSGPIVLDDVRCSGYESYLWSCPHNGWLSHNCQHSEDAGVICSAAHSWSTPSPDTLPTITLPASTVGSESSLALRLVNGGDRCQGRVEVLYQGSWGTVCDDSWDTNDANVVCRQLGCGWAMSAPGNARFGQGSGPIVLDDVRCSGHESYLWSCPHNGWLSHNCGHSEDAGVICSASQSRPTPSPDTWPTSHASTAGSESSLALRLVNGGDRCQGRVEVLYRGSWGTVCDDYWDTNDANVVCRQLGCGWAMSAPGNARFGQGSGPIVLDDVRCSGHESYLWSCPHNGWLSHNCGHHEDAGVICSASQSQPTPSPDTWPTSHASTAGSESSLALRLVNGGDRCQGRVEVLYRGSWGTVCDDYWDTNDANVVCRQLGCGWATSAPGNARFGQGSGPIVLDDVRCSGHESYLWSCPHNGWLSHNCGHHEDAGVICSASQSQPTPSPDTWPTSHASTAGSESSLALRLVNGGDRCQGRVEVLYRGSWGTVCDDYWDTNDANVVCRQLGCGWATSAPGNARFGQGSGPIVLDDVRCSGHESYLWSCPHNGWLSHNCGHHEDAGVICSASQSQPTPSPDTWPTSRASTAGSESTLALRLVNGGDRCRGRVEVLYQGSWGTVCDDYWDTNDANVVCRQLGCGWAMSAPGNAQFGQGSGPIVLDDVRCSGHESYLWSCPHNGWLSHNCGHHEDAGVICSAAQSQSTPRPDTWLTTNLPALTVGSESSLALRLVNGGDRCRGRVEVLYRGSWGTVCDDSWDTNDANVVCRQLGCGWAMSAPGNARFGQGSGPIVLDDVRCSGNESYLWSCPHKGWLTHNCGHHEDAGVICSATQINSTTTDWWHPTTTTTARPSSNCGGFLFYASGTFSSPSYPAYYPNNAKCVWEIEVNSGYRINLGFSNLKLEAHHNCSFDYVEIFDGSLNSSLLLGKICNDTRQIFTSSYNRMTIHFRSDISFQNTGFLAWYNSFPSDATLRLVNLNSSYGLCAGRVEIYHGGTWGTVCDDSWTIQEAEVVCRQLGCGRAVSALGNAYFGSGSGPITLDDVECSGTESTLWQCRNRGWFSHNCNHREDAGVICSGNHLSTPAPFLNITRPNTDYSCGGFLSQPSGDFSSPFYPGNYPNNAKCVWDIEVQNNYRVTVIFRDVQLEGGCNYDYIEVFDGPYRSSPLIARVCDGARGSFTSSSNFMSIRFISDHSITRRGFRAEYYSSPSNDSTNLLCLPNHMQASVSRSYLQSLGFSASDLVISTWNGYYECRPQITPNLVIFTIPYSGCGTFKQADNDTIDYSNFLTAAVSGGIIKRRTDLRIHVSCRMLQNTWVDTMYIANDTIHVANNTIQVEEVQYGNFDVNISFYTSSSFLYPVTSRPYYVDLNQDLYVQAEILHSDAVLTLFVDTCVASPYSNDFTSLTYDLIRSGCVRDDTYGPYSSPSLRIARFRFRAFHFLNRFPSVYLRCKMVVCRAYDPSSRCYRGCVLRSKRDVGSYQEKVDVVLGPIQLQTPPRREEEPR

In the case of Siglec-8-Fc (from UniProt Q9NYZ4), the Kd was 60 pM.
